Data published in IntAct's records for PubMed 39009827.

B1: Fanconi anemia group A protein (Homo sapiens), O15360 (parent)
chain: MSDSWVPNSASGQDPGGRRRAWAELLAGRVKREKYNPERAQKLKESAVRLLRSHQDLNALLLEVEGPLCKKLSLSKVIDCDSSEAYANHSSSFIGSALQDQASRLGVPVGILSAGMVASSVGQICTAPAETSHPVLLTVEQRKKLSSLLEFAQYLLAHSMFSRLSFCQELWKIQSSLLLEAVWHLHVQGIVSLQELLESHPDMHAVGSWLFRNLCCLCEQMEASCQHADVARAMLSDFVQMFVLRGFQKNSDLRRTVEPEKMPQVTVDVLQRMLIFALDALAAGVQEESSTHKIVRCWFGVFSGHTLGSVISTDPLKRFFSHTLTQILTHSPVLKASDAVQMQREWSFARTHPLLTSLYRRLFVMLSAEELVGHLQEVLETQEVHWQRVLSFVSALVVCFPEAQQLLEDWVARLMAQAFESCQLDSMVTAFLVVRQAALEGPSAFLSYADWFKASFGSTRGYHGCSKKALVFLFTFLSELVPFESPRYLQVHILHPPLVPGKYRSLLTDYISLAKTRLADLKVSIENMGLYEDLSSAGDITEPHSQALQDVEKAIMVFEHTGNIPVTVMEASIFRRPYYVSHFLPALLTPRVLPKVPDSRVAFIESLKRADKIPPSLYSTYCQACSAAEEKPEDAALGVRAEPNSAEEPLGQLTAALGELRASMTDPSQRDVISAQVAVISERLRAVLGHNEDDSSVEISKIQLSINTPRLEPREHMAVDLLLTSFCQNLMAASSVAPPERQGPWAALFVRTMCGRVLPAVLTRLCQLLRHQGPSLSAPHVLGLAALAVHLGESRSALPEVDVGPPAPGAGLPVPALFDSLLTCRTRDSLFFCLKFCTAAISYSLCKFSSQSRDTLCSCLSPGLIKKFQFLMFRLFSEARQPLSEEDVASLSWRPLHLPSADWQRAALSLWTHRTFREVLKEEDVHLTYQDWLHLELEIQPEADALSDTERQDFHQWAIHEHFLPESSASGGCDGDLQAACTILVNALMDFHQSSRSYDHSENSDLVFGGRTGNEDIISRLQEMVADLELQQDLIVPLGHTPSQEHFLFEIFRRRLQALTSGWSVAASLQRQRELLMYKRILLRLPSSVLCGSSFQAEQPITARCEQFFHLVNSEMRNFCSHGGALTQDITAHFFRGLLNACLRSRDPSLMVDFILAKCQTKCPLILTSALVWWPSLEPVLLCRWRRHCQSPLPRELQKLQEGRQFASDFLSPEAASPAPNPDWLSAAALHFAIQQVREENIRKQLKKLDCEREELLVFLFFFSLMGLLSSHLTSNSTTDLPKAFHVCAAILECLEKRKISWLALFQLTESDLRLGRLLLRVAPDQHTRLLPFAFYSLLSYFHEDAAIREEAFLHVAVDMYLKLVQLFVAGDTSTVSPPAGRSLELKGQGNPVELITKARLFLLQLIPRCPKKSFSHVAELLADRGDCDPEVSAALQSRQQAAPDADLSQEPHLF
B2: Zinc finger protein GLIS2 (Homo sapiens), Q9BZE0 (parent)
chain: MHSLDEPLDLKLSITKLRAAREKRERTLGVVRPRALHRELGLVDDSPTPGSPGSPPSGFLLNSKFPEKVEGRFSAAPLVDLSLSPPSGLDSPNGSSSLSPERQGNGDLPPVPSASDFQPLRYLDGVPSSFQFFLPLGSGGALHLPASSFLTPPKDKCLSPDLPLPKQLVCRWAKCNQLFELLQDLVDHVNDYHVKPEKDAGYCCHWEGCARHGRGFNARYKMLIHIRTHTNEKPHRCPTCSKSFSRLENLKIHNRSHTGEKPYVCPYEGCNKRYSNSSDRFKHTRTHYVDKPYYCKMPGCHKRYTDPSSLRKHIKAHGHFVSHEQQELLQLRPPPKPPLPAPDGGPYVSGAQIIIPNPAALFGGPGLPGLPLPLAPGPLDLSALACGNGGGSGGGGGMGPGLPGPVLPLNLAKNPLLPSPFGAGGLGLPVVSLLAGAAGGKAEGEKGRGSVPTRALGMEGHKTPLERTESSCSRPSPDGLPLLPGTVLDLSTGVNSAASSPEALAPGWVVIPPGSVLLKPAVVN
B3: Keratin, type II cytoskeletal 1 (Homo sapiens), P04264 (parent)
chain: MSRQFSSRSGYRSGGGFSSGSAGIINYQRRTTSSSTRRSGGGGGRFSSCGGGGGSFGAGGGFGSRSLVNLGGSKSISISVARGGGRGSGFGGGYGGGGFGGGGFGGGGFGGGGIGGGGFGGFGSGGGGFGGGGFGGGGYGGGYGPVCPPGGIQEVTINQSLLQPLNVEIDPEIQKVKSREREQIKSLNNQFASFIDKVRFLEQQNQVLQTKWELLQQVDTSTRTHNLEPYFESFINNLRRRVDQLKSDQSRLDSELKNMQDMVEDYRNKYEDEINKRTNAENEFVTIKKDVDGAYMTKVDLQAKLDNLQQEIDFLTALYQAELSQMQTQISETNVILSMDNNRSLDLDSIIAEVKAQYEDIAQKSKAEAESLYQSKYEELQITAGRHGDSVRNSKIEISELNRVIQRLRSEIDNVKKQISNLQQSISDAEQRGENALKDAKNKLNDLEDALQQAKEDLARLLRDYQELMNTKLALDLEIATYRTLLEGEESRMSGECAPNVSVSVSTSHTTISGGGSRGGGGGGYGSGGSSYGSGGGSYGSGGGGGGGRGSYGSGGSSYGSGGGSYGSGGGGGGHGSYGSGSSSGGYRGGSGGGGGGSSGGRGSGGGSSGGSIGGRGSSSGGVKSSGGSSSVKFVSTTYSGVTR
B4: Mitotic checkpoint serine/threonine-protein kinase BUB1 (Homo sapiens), O43683 (parent)
chain: MDTPENVLQMLEAHMQSYKGNDPLGEWERYIQWVEENFPENKEYLITLLEHLMKEFLDKKKYHNDPRFISYCLKFAEYNSDLHQFFEFLYNHGIGTLSSPLYIAWAGHLEAQGELQHASAVLQRGIQNQAEPREFLQQQYRLFQTRLTETHLPAQARTSEPLHNVQVLNQMITSKSNPGNNMACISKNQGSELSGVISSACDKESNMERRVITISKSEYSVHSSLASKVDVEQVVMYCKEKLIRGESEFSFEELRAQKYNQRRKHEQWVNEDRHYMKRKEANAFEEQLLKQKMDELHKKLHQVVETSHEDLPASQERSEVNPARMGPSVGSQQELRAPCLPVTYQQTPVNMEKNPREAPPVVPPLANAISAALVSPATSQSIAPPVPLKAQTVTDSMFAVASKDAGCVNKSTHEFKPQSGAEIKEGCETHKVANTSSFHTTPNTSLGMVQATPSKVQPSPTVHTKEALGFIMNMFQAPTLPDISDDKDEWQSLDQNEDAFEAQFQKNVRSSGAWGVNKIISSLSSAFHVFEDGNKENYGLPQPKNKPTGARTFGERSVSRLPSKPKEEVPHAEEFLDDSTVWGIRCNKTLAPSPKSPGDFTSAAQLASTPFHKLPVESVHILEDKENVVAKQCTQATLDSCEENMVVPSRDGKFSPIQEKSPKQALSSHMYSASLLRLSQPAAGGVLTCEAELGVEACRLTDTDAAIAEDPPDAIAGLQAEWMQMSSLGTVDAPNFIVGNPWDDKLIFKLLSGLSKPVSSYPNTFEWQCKLPAIKPKTEFQLGSKLVYVHHLLGEGAFAQVYEATQGDLNDAKNKQKFVLKVQKPANPWEFYIGTQLMERLKPSMQHMFMKFYSAHLFQNGSVLVGELYSYGTLLNAINLYKNTPEKVMPQGLVISFAMRMLYMIEQVHDCEIIHGDIKPDNFILGNGFLEQDDEDDLSAGLALIDLGQSIDMKLFPKGTIFTAKCETSGFQCVEMLSNKPWNYQIDYFGVAATVYCMLFGTYMKVKNEGGECKPEGLFRRLPHLDMWNEFFHVMLNIPDCHHLPSLDLLRQKLKKVFQQHYTNKIRALRNRLIVLLLECKRSRK
B5: Zinc finger protein 526 (Homo sapiens), Q8TF50 (parent)
chain: MAEVVAEVAEMPTQMSPGAVEMSTPMSAEMMEMSTEVTEMTPGEALASSLFFQHHQFMCSECGSLYNTLEEVLSHQEQHMLAVSEEEALTTQNVGLEPELVPGAEGPFQCGECSQLILSPGELLAHQDAHLRESANQIQYQCWDCQELFPSPELWVAHRKAQHLSATVAEPPVPPPLPPPTPLPPPSPPSEVKMEPYECPECSTLCATPEEFLEHQGTHFDSLEKEERNGLEEEEEDDEEDEEDDEEMEDEEAMAEVGDDAVGGDESTAGWAQGCGDCPQHQPSAGARRQHRRTAHSPASATHPFHCSQCQRSFSSANRLQAHGRAHVGGTHECTTCSKVFKKAASLEQHLRLHRGEARYLCVDCGRGFGTELTLVAHRRAHTANPLHRCRCGKTFSNMTKFLYHRRTHAGKSGAPPTGATAPPAPAEPTPPPPPPAPPAQLPCPQCSKSFASASRLSRHRRAVHGPPERRHRCGVCGKGFKKLIHVRNHLRTHTGERPFQCHSCGKTFASLANLSRHQLTHTGARPYQCLDCGKRFTQSSNLQQHRRLHLRPVAFARAPRLPITGLYNKSPYYCGTCGRWFRAMAGLRLHQRVHARARTLTLQPPRSPSPAPPPPPEPQQTIMCTELGETIAIIETSQPLALEDTLQLCQAALGASEAGGLLQLDTAFV

Variants of: B1
Conditions: with cskp_human CASK

effect of a mutation on the interaction | Variant
causing an interaction | S4L

Variants of: B2
Conditions: with ptbp1_human PTBP1, P26599
ptbp1_human PTBP1, P26599, sequence (P26599 whole entry): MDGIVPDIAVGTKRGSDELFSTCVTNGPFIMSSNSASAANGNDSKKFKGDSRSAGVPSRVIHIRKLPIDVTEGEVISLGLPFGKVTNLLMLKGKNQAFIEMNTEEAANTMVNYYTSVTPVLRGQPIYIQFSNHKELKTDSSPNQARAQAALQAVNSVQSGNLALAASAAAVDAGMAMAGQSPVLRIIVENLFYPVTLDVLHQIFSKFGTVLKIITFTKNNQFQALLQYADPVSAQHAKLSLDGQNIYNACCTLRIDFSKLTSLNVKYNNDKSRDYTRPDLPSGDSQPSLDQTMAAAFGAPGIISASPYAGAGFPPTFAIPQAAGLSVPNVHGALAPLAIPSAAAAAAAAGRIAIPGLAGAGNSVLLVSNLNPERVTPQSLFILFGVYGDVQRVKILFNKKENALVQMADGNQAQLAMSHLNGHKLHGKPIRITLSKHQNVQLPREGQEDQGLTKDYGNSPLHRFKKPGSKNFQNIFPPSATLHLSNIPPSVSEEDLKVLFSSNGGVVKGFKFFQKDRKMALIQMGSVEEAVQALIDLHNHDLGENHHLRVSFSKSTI

effect of a mutation on the interaction | Variant
decreasing interaction strength | P420L

Variants of: B3
Conditions: with mlp3a_human MAP1LC3A

effect of a mutation on the interaction | Variant
disrupting interaction strength | L214P

Variants of: B4
Conditions: with mlp3b_human MAP1LC3B

effect of a mutation on the interaction | Variant
increasing interaction strength | S492F

Variants of: B4
Conditions: with gbrl1_human GABARAPL1, Q9H0R8
gbrl1_human GABARAPL1, Q9H0R8, sequence (Q9H0R8 whole entry, looked up): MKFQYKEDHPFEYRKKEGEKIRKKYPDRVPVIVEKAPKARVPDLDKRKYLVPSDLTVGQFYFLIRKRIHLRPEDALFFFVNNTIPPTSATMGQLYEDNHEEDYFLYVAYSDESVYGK

effect of a mutation on the interaction | Variant
increasing interaction strength | S492F

Variants of: B5
Conditions: with ima3_human KPNA4, O00629
ima3_human KPNA4, O00629, sequence (O00629 whole entry): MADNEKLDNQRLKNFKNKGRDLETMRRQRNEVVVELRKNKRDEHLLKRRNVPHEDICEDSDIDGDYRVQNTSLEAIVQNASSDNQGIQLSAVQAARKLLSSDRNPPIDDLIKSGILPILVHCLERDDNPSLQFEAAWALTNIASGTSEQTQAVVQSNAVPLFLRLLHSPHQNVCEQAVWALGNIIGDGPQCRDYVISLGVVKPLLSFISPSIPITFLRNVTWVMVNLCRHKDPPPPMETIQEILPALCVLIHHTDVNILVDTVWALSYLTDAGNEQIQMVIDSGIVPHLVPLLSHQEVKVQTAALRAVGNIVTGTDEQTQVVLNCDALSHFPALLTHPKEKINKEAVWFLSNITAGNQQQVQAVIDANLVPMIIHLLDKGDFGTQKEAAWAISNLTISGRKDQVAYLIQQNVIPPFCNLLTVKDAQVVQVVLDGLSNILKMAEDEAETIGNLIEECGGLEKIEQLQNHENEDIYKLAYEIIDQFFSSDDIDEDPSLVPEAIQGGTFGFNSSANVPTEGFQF

effect of a mutation on the interaction | Variant
disrupting interaction strength | K160T

Variants of: B5
Conditions: with ima3_human KPNA4, O00629
Remark: another data set of the same source

effect of a mutation on the interaction | Variant
decreasing interaction strength | K160T
